B1: MAdCAM Antibody Table 2 Clone 46 (antibody, human IgG1, V domains shown)
VH: EVQLLESGGGLVQPGGSLRLSCAASGFSFSSYTMNWVRQAPGKGLEWVSFITSSSRTIYYADSVKGRFTISRDNSKNTLYLQMNSLRAEDTAVYYCARDRRGDYGDSWYFDLWGRGTLVTVSS
VL: EIVMTQSPATLSVSPGERATLSCRASQSVRNYLAWYQQKPGQAPRLLIYGASTRATGIPARFSGSGSGTEFTLTISSLQSEDFAVYYCQQYGSSPLTFGGGTKVEIK
B2: PD1AB22 (antibody, IgG1, V domains shown)
VH: QVQLVQSGAEVKKPGASVKVSCKASGYTFSGYYMHWVRQAPGQGLEWMGVINPSGGSTSYAQKFQGRVTMTRDTSTSTVYMELSSLRSEDTAVYYCAEGFDYWGQGTLVTVSS
VL: EIVMTQSPATLSVSPGERATLSCRASQGVGRSLAWYQQKPGQAPRLLIYGASTRATGIPARFSGSGSGTEFTLTISSLQSEDFAVYYCQQYYTTPITFGQGTRLEIK
B3: PD1AB4 (antibody, IgG1, V domains shown)
VH: QVQLVQSGAEVKKPGASVKVSCKASGYSFTTYYMHWVRQAPGQGLEWMGIINPSGGSTSYAQKFQGRVTMTRDTSTSTVYMELSSLRSEDTAVYYCASGWVYWGQGTLVTVSS
VL: DIQMTQSPSSLSASVGDRVTITCQASRDIKNYLAWYQQKPGKAPKLLIYAASSLQSGVPSRFSGSGSGTDFTLTISSLQPEDFATYYCQQSYSTPPTFGPGTKVDIK
B4: PD1AB20 (antibody, IgG1, V domains shown)
VH: QVQLVQSGAEVKKPGASVKVSCKASGYTFSDHYMHWVRQAPGQGLEWMGTINPSGGRTSYAQKFQGRVTMTRDTSTSTVYMELSSLRSEDTAVYYCAADNGHASGWLYYYGMDVWGQGTTVTVSS
VL: DIQMTQSPSSLSASVGDRVTITCRASQSISNWVAWYQQKPGKAPKLLIYRASTLQSGVPSRFSGSGSGTDFTLTISSLQPEDFATYYCQQSHSLPLTFGPGTKVDIK
B5: MAdCAM Antibody Table 2 Clone 24 (antibody, human IgG1, V domains shown)
VH: EVQLVESGGGLVKPGGSLRLSCAASGFTFSSYWMSWVRQAPGKGLEWVSRISSDGRITTYAAPVKGRFTISRDDSKNTLYLQMNSLKTEDTAVYYCARGTSYCTGGVCDIDYWGQGTLVTVSS
VL: DIQMTQSPSSLSASVGDRVTITCRASQSIGRNLNWYQQKPGKAPKLLIYSASNLQSGVPSRFSGSGSGTDFTLTISSLQPEDFATYYCQQSYSIPLTFGPGTKVDIK
B6: PD1AB6 (antibody, IgG1, V domains shown)
VH: EVQLLESGGGLVQPGGSLRLSCAASGFTFSNYPMHWVRQAPGKGLEWVALISDDGTNEHYADSVKGRFTISRDNSKNTLYLQMNSLRAEDTAVYYCARDSKFANYYYYYDMDVWGQGTTVTVSS
VL: DIQMTQSPSSLSASVGDRVTITCRASQSINNYLSWYQQKPGKAPKLLIYDASNLETGVPSRFSGSGSGTDFTLTISSLQPEDFATYYCQQSYSTPLTFGPGTKVDIK
B7: PD1AB7 (antibody, IgG1, V domains shown)
VH: QVQLVQSGAEVKKPGASVKVSCKASGYSFTGHYIHWVRQAPGQGLEWMGIINPNGGSTTYAQKLQGRVTMTRDTSTSTVYMELSSLRSEDTAVYYCARGKFDFYGDYVTAFDIWGQGTMVTVSS
VL: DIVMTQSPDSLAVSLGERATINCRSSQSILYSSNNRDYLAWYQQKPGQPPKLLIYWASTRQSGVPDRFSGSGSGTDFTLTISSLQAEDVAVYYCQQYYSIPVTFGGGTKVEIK
B8: MAdCAM Antibody Table 2 Clone 74 (antibody, human IgG1, V domains shown)
VH: QVQLVQSGAEVKKPGASVKVSCKASGYTFTGYYMHWVRQAPGQGLEWMGIINPSGGNTKYAQKFQGRVTMTRDTSTSTVYMELSSLRSEDTAVYYCTTADYYYYMDVWGKGTTVTVSS
VL: DIQMTQSPSSLSASVGDRVTITCRASQGISNYLAWYQQKPGKAPKLLIYAASSLQSGVPSRFSGSGSGTDFTLTISSLQPEDFATYYCQQYYSNADFGQGTKVEIK
B9: PD1AB23 (antibody, IgG1, V domains shown)
VH: QVQLVQSGAEVKKPGASVKVSCKASGGTFSNYAISWVRQAPGQGLEWMGWMNPNSGNTGYAQKFQGRVTMTRDTSTSTVYMELSSLRSEDTAVYYCARVNYYYYYGMDVWGQGTTVTVSS
VL: DIQMTQSPSSLSASVGDRVTITCQASQDISNYLNWYQQKPGKAPKLLIYKASTLKSGVPSRFSGSGSGTDFTLTISSLQPEDFATYYCQQADNLPFTFGPGTKVDIK
B10: human IL-2 mutein fused N-terminally to human IgG1 Fc domain (SEQ ID NO: 57) (Fc fusion)
chain: APTSSSTKKTQLQLEHLLLDLQMILNGINNYKNPKLTRMLTFKFYMPKKATELKHLQCLEEELKPLEEALNLAPSKNFHLRPRDLISDINVIVLELKGSETTFMCEYADETATIVEFLNRWITFSQSIISTLTGGGGSGGGGSGGGGSGGGGSDKTHTCPPCPAPEAAGAPSVFLFPPKPKDTLMISRTPEVTCVVVDVSHEDPEVKFNWYVDGVEVHNAKTKPREEQYNSTYRVVSVLTVLHQDWLNGKEYKCKVSNKALPAPIEKTISKAKGQPREPQVYTLPPSREEMTKNQVSLTCLVKGFYPSDIAVEWESNGQPENNYKTTPPVLDSDGSFFLYSKLTVDKSRWQQGNVFSCSVMHEALHNHYTQKSLSLSPG
notes: also called IL-2 N88D V69A, Q74P-G4Sx4-Fc
B11: PD1AB18 (antibody, IgG1, V domains shown)
VH: QVQLVQSGAEVKKPGASVKVSCKASGYTFTDYAMHWVRQAPGQGLEWMGWLNPNSGNTGYAPKFQGRVTMTRDTSTSTVYMELSSLRSEDTAVYYCAAGLFIWGQGTMVTVSS
VL: DIQMTQSPSSLSASVGDRVTITCRASQSINRWLAWYQQKPGKAPKLLIYDASSLESGVPSRFSGSGSGTDFTLTISSLQPEDFATYYCQQSYSIPITFGQGTRLEIK
B12: MAdCAM Antibody Table 2 Clone 65 (antibody, human IgG1, V domains shown)
VH: QVQLVQSGAEVKKPGASVKVSCKASGYTFTSYDINWVRQAPGQGLEWMGWMNPNSGNTGYAQKFQGRVTMTRDTSTSTVYMELSSLRSEDTAVYYCAKDSDYSNLLWDYWGQGTLVTVSS
VL: DIQMTQSPSSLSASVGDRVTITCRASQDITNDLGWYQQKPGKAPKLLIYQASSLESGVPSRFSGSGSGTDFTLTISSLQPEDFATYYCQQSYTIPLTFGQGTKVEIK
B13: MAdCAM Antibody Table 2 Clone 23 (antibody, human IgG1, V domains shown)
VH: EVQLLESGGGLVQPGGSLRLSCAASGFTFDDYAMHWVRQAPGKGLEWVSYIDTSSSHLYYADSVKGRFTISRDNSKNTLYLQMNSLRAEDTAVYYCARDEAAAGYYGMDVWGQGTTVTVSS
VL: DIQMTQSPSSLSASVGDRVTITCQAGQDISNYLNWYQQKPGKAPKLLIYDASNLETGVPSRFSGSGSGTDFTLTISSLQPEDFATYYCQQTYSTPITFGQGTKLEIK
B14: MAdCAM Antibody Table 2 Clone 29 (antibody, human IgG1, V domains shown)
VH: EVQLLESGGGLVQPGGSLRLSCAASGFTFSSYQMSWVRQAPGKGLEWVSYISSSSTYTNYADSVKGRFTISRDNSKNTLYLQMNSLRAEDTAVYYCARANSSSWYDWYFDLWGQGTLVTVSS
VL: not shown

What was measured:
[1] = target: T1, human MAdCAM expressed on cells (human, UniProt Q13477 19-382); experiment: cell binding
T1 construct: whole, on cells; also called MADCAM1
T1 sequence (looked up): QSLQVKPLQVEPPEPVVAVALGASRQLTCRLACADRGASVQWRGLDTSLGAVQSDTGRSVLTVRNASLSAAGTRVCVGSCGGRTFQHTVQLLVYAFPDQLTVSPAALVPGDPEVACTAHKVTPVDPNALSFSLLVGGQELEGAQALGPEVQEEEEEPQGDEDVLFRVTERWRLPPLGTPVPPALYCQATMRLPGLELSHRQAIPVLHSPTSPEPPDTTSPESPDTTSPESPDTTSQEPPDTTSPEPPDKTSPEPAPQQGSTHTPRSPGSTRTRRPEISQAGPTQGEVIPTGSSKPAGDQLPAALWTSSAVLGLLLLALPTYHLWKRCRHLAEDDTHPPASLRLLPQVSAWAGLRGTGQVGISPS

[2] = target: T2, mouse MAdCAM expressed on cells (mouse, UniProt Q61826 22-405); experiment: cell binding
T2 construct: whole, on cells
T2 sequence (looked up): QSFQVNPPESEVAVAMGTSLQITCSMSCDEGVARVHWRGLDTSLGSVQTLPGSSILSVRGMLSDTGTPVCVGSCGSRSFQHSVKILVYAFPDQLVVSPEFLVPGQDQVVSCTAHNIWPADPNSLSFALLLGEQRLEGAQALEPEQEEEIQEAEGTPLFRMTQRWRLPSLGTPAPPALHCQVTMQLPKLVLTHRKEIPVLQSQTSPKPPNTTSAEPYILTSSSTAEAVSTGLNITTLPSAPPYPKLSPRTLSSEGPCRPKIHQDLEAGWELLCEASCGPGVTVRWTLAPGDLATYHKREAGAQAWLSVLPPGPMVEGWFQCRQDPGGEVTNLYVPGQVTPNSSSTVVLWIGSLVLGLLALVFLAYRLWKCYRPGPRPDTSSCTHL

[3] = target: T3, recombinant mouse MAdCAM-1 (mouse, UniProt Q61826 22-365, limits assumed); experiment: Octet
T3 construct: also called mMAdCAM-1; mouse MAdCAM-Fc
T3 sequence (looked up): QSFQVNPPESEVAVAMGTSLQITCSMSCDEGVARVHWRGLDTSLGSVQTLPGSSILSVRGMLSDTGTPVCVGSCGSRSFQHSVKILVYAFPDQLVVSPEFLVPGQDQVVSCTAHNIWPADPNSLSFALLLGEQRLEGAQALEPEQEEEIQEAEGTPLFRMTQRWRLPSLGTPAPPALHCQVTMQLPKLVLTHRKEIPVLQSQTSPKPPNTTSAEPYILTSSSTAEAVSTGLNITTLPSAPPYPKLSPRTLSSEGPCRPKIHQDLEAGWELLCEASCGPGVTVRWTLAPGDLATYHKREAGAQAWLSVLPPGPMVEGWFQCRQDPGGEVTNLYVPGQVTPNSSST

mouse PD-1 on cells = target: T4, mouse PD-1 on cells (mouse, UniProt Q02242 25-288); experiment: cell-based or functional assay
T4 sequence (looked up): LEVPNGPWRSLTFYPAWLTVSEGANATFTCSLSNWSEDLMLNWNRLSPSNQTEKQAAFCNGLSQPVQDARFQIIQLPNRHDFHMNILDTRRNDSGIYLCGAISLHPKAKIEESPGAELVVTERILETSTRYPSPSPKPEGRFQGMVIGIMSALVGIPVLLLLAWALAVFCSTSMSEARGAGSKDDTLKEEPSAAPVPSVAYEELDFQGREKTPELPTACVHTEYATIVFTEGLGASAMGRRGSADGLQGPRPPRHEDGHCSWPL

CD25 = target: T5, CD25 (Homo sapiens (Human), UniProt P01589 22-240); experiment: ELISA, CD25 coated plate
T5 construct: also called IL-2R alpha chain
T5 sequence: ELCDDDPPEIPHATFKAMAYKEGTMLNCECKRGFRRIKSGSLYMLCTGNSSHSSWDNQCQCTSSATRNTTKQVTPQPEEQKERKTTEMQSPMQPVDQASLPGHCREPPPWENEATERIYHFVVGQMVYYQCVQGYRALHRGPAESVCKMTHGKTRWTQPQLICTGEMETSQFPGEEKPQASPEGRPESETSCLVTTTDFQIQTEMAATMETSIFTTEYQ

Binder | binding result [1] | binding result [2] | binding result [3] | Mouse agonist-CTG: IC50, IgG1 (mouse PD-1 on cells) [nM] | EC50 (CD25) [nM]
B1 | binds | no binding | no binding |  | 
B2 |  |  |  | < 10 | 
B3 |  |  |  | < 10 | 
B4 |  |  |  | < 10 | 
B5 | binds | no binding | no binding |  | 
B6 |  |  |  | < 10 | 
B7 |  |  |  | < 10 | 
B8 | binds | no binding | no binding |  | 
B9 |  |  |  | < 10 | 
B10 |  |  |  |  | < 1
B11 |  |  |  | < 10 | 
B12 | binds | no binding | no binding |  | 
B13 | binds | no binding | no binding |  | 
B14 | binds | no binding | no binding |  | 

— patent US20210206856A1 (PANDION OPERATIONS, published 2021)
